Assay results as given in patent publication US20130323281A1.

Molecular target: human TLR5 on HEK-Blue-hTLR5 cells (human) (UniProt O60602)
Assay: cell-based or functional assay

Sequence of UniProt O60602 (O60602 21-858): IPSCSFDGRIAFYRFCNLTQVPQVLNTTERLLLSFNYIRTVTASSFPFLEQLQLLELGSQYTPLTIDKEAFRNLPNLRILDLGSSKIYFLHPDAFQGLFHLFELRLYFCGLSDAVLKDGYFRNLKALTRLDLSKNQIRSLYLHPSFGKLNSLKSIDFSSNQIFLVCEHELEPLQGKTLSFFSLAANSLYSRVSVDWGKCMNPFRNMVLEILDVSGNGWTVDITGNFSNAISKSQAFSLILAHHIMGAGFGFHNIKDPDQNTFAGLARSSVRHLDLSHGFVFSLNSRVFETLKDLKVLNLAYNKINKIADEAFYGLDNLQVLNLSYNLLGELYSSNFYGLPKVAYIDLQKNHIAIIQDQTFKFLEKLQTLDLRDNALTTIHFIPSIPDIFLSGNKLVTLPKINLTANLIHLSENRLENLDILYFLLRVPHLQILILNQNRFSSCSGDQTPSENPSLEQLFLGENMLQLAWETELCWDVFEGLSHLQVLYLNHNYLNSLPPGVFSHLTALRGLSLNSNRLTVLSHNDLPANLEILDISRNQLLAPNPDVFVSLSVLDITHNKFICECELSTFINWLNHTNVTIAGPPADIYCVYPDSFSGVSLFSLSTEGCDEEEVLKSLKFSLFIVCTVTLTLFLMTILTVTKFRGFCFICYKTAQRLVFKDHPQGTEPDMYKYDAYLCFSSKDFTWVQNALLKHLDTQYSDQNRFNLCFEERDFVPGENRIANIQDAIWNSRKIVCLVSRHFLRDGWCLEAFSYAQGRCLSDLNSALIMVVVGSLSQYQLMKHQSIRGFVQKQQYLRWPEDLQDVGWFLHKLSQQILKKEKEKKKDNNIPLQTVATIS

Question: How did the flagellin bioactivity (SEAP reporter, HEK-Blue-hTLR5 cells), fold against free flagellin turn out when “flagellin (G239HPG, M310I, M466I) conjugated to Hepatitis B core (HBc) VLP by azide-alkyne click reaction” was run?
Answer: Its flagellin bioactivity (SEAP reporter, HEK-Blue-hTLR5 cells), fold against free flagellin is 10 fold.

Question: Which results are given for “flagellin (fliC gene product) from Salmonella typhimurium SL1344, wild-type, produced by cell-free protein synthesis (from UniProt P06179 2-495) (ligand)”?
Answer: EC50 in flagellin bioactivity assay (SEAP reporter, HEK-Blue-hTLR5 cells): 2.4 pM; bioactivity assay (SEAP reporter, HEK-Blue-hTLR5 cells), given as 'affinity': 6 pM

Question: How did the bioactivity assay (SEAP reporter, HEK-Blue-hTLR5 cells), fold against free flagellin turn out when “flagellin Mutation III (M1HPG, Ala2Ile, M310I, M466I) conjugated to Hepatitis B core (HBc) VLP” was run?
Answer: The bioactivity assay (SEAP reporter, HEK-Blue-hTLR5 cells), fold against free flagellin was 5 fold.
